According to article PMC11735997:

Target: Trichoplusia ni acetyl-coenzyme A carboxylase (Trichoplusia ni (endogenous in T. ni cells))
Assay: cryo-EM structure; endogenous T. ni ACC (~2 uM) in 25 mM Hepes pH 8.0, 150 mM NaCl, 1 mM TCEP; refined with C2 symmetry to 3.12 Å; only the CT domain (1622-2396) modelled

- stoichiometry N: 2
Substance: Trichoplusia ni acetyl-coenzyme A carboxylase
